Patent US12534533B2, “Anti-chemokine like receptor 1 humanized antibodies and their therapeutic applications” (OSE IMMUNOTHERAPEUTICS, priority 2019, dated 2026)

Assays:
[1] = Stability assay (7 days at 4° C. or 37° C.; ELISA and gel filtration); format: physicochemical; conditions: after 7 days at 37° C.; gel filtration; FIG. 34B
Procedure: FIG. 34—A. Binding of purified antibodies incubated 7 days at 4° C. or 37° C. on human ChemR23 ELISA assay. B. SEC profile by gel filtration chromatography of purified antibodies incubated 7 days at 37° C. Each purified humanized anti-ChemR23 antibody (HALA, HDLD, HD-LDT52S, HEF-LDT52S, HEF-LEF) were incubated for 7 days at 4° C. or 37° C. After 7 days, the binding of purified antibodies was analyzed by ELISA assay and the aggregate formation was analyzed by gel filtration (Superdex 200 10/300GL, GeHealthcare).
Each purified humanized anti-ChemR23 antibody (HALA, HDLD, HD-LDT52S, HEF-LDT52S, HEF-LEF) were incubated for 7 days at 4° C. or 37° C. After 7 days, the binding of purified antibodies was analyzed by ELISA assay and the aggregate formation was analyzed by gel filtration (Superdex 200 10/300GL, GeHealthcare).

[2] = test system: PMN from healthy volunteers; assay: Percentage of dead PMN (mortality of neutrophils) on coated antibodies; format: cell-based, human; conditions: coated Ab at 10 μg/mL, 24 h; FIG. 26, FIG. 36
Procedure: […] Mortality of PMN was analyzed by incubating PMN with specific markers of the mortality and viability and then counted by picture analysis.
(§1) FIG. 36—Increase of dead PMN neutrophils in vitro with anti-ChemR23 antibodies coated. PMN from healthy volunteers were incubated in culture medium with coated HEF-LDT52S, HEF-LEF and HDLD antibody variants at 10 μg/mL for 24 h and stained either with a dead/viability kit (LIVE/DEAD (Invitrogen)). The percentages of positive cells were obtained by analyzing the pictures with Fiji software. Isotype control was added as control.
PMN from healthy volunteers were incubated in culture medium with coated Ab at 10 μg/mL for 24 h or 5 h and stained either with a dead/viability kit (LIVE/DEAD (Invitrogen)) or a specific marker of reactive oxygen species (ROS) respectively. The percentages of positive cells were obtained by analyzing the pictures with ImageJ software.
as §1, with “PMN” for “FIG. 36—Increase of dead PMN neutrophils in vitro with anti-ChemR23 antibodies coated. PMN”

[3] = target: T1, Biot-C7 peptide (human ChemR23 peptide, SEQ ID No. 60) (Homo sapiens, UniProt Q99788); assay: activity ELISA assay, binding of biotinylated C7 peptide; conditions: compared to wild-type 2G1; FIG. 23, FIG. 33
T1 construct: purchased synpeptide; host or cells: chemical synthesis
T1 sequence (Q99788 275-307 limits assumed): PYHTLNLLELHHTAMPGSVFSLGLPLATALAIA
Source text: FIG. 23. Binding recognition of C7 peptide by humanized anti-CMKLR1 derived from 2G1. Binding of C7biot in the supernatant of CHO cells transfected with different combinations of heavy and light chains (VHWT+VLWT: combination of SEQ ID No. 37 and SEQ ID No. 49; HCLC: combination of SEQ ID No. 42 and SEQ ID No.52; HDLC: combination of SEQ ID No. 43 and SEQ ID No.52; HCLD: combination of SEQ ID No. 42 and SEQ ID No.53; HDLD: combination of SEQ ID No. 43 and SEQ ID No.53).
FIG. 24. ED50 of anti-CMKLR1 derived from 2G1 antibody. 2G1 wt: HALA: combination of SEQ ID No. 41 and SEQ ID No. 50; combination of SEQ ID No. 37 and SEQ ID No. 49; HCLC: combination of SEQ ID No. 42 and SEQ ID No.52; HDLC: combination of SEQ ID No. 43 and SEQ ID No.52; HCLD: combination of SEQ ID No. 42 and SEQ ID No.53; HDLD: combination of SEQ ID No. 43 and SEQ ID No.53.
FIG. 33—Binding of purified antibodies on human ChemR23 peptide by ELISA assay (A), with ED50 concentration (ng/ml) (B). For activity ELISA assay, donkey anti-human IgG, Fc specific (Jackson Immunoresearch; USA; reference 709-005-098) was immobilized on plastic at 1.3 μg/ml in borate buffer (pH9) and purified antibody was added to measure binding in BSA1% buffer, compared to wild-type 2G1.
For activity ELISA assay, donkey anti-human IgG, Fc specific (Jackson Immunoresearch; USA; reference 709-005-098) was immobilized on plastic at 1.3 μg/ml in borate buffer (pH9) and purified antibody were added to measure binding in BSA1% buffer, compared to wild-type 2G1.
For activity ELISA assay, donkey anti-human IgG, Fc specific (Jackson Immunoresearch; USA; reference 709-005-098) was immobilized on plastic at 1.3 μg/ml in borate buffer (pH9) and purified antibody was added to measure binding in BSA1% buffer, compared to wild-type 2G1.

[4] = test system: CCR7 expression at the surface of pro-inflammatory macrophages M1; assay: CCR7 expression on M1 macrophages with coated antibodies; format: cell-based, human; conditions: antibody coated on plate, 48 h, flow cytometry; vs isotype control; FIG. 25, FIG. 35
Procedure: FIG. 25. Inhibition of CCR7 expression on M1 macrophages cells in vitro with anti-ChemR23 antibodies coated. 2G1 and all humanized 2G1 variants (HALA, HCLC, HCLD, HDLC and HDLD) were immobilized on plate. Isotype control were added as controls. Two isotypes which prevent FcRγ binding, i.e., 2G1-N297A (2G1 wt mutated in N297A to reduce FcγR binding), and 2G4 (wt with isotype IgG4mutated in S228P to stabilise hinge region) were also added. Pro-inflammatory macrophages M1 were added on coated plate for 48 h, and CCR7 expression at the surface of the macrophages was measured by flow cytometry.
FIG. 35—Inhibition of CCR7 expression on M1 macrophages cells in vitro with anti-ChemR23 antibody coated. The humanized 2G1 variant HEF-LD-T52S was immobilized on plate. Isotype control were added as controls. Pro-inflammatory macrophages M1 were added on coated plate, and CCR7 expression at the surface of the macrophages was measured by flow cytometry.
MATERIAL AND METHODS. […]
RESULTS. […] Pro-inflammatory macrophages M1 were added on coated plate for 48 h, and CCR7 expression at the surface of the macrophages was measured by flow cytometry.
The humanized 2G1 variant HEF-LD-T52S was immobilized on plate. […] Pro-inflammatory macrophages M1 were added on coated plate for 48 h, and CCR7 expression at the surface of the macrophages was measured by flow cytometry. […]

| Molecule | percentage of aggregate [1] | mortality of PMN (percentage of dead PMN) [2] | binding activity to antigen-specific peptides (C7 peptide) [3] | expression of CCR7 at the surface of pro-inflammatory macrophages (M1) [4] |
| --- | --- | --- | --- | --- |
| HDLD: humanized 2G1 variant: combination of SEQ ID No. 43 and SEQ ID No. 53 (antibody, V domains shown) VH: EVQLVESGGGLVQPGGSLRLSCAASGFTFSSYAMSWVRQAPGKGLELVATINRYGGSTYYAASVKGRFTISRDNSKNTLYLQMNSLRAEDTAVYYCPKLIYYGNEGDSWGQGTLVTVSS VL: AIQLTQSPSSLSASVGDRVTITCRASQSVSFLHWYQQKPGKAPKRWIYDATKLTSGVPSRFSGSGSGTDFTLTISSLQPEDFATYYCQQWQSKPPLTFGGGTKVEIK | did not change | accelerate the death of PMN | even better than the germline antibody HALA and the wild type antibody 2G1 |  |
| HEF-LDT52S: humanized 2G1 variant optimized to reduce immunogenicity: HEF (SEQ ID NO: 91) with LD-T52S (SEQ ID No. 93) (antibody, V domains shown) VH: EVQLVESGGGLVQPGGSLRLSCAASGFTFSSYAMSWVRQAPGKGLELVSTISGSGGSTYYAASVKGRFTISRDNSKNTLYLQMNSLRAEDTAVYYCPKLIYYGNEGDSWGQGTLVTVSS VL: AIQLTQSPSSLSASVGDRVTITCRASQSVSFLHWYQQKPGKAPKRWIYDASKLTSGVPSRFSGSGSGTDFTLTISSLQPEDFATYYCQQWQSKPPLTFGGGTKVEIK | did not change | accelerate the death of PMN | high binding activity | able to decrease expression of CCR7 |
